The values that follow come from paper PMC8269962 (Nature, 2021).

This assay concerns the target H3-I53_dn5B trimer (H3 HA ectodomain fused to the N terminus of I53_dn5B) (influenza A virus (H3N2)). Nature of the assay: SEC. On the technique in general: In gel filtration, larger molecules generally elute earlier.

“H3-I53_dn5B trimer (H3 HA ectodomain fused to the N terminus of I53_dn5B)” had a stoichiometry N of 3.

By stoichiometry N is commonly meant a count of units in the complex or per binding partner.
